Measured values published in the supplement of paper PMC12042874.
± gives the uncertainty stated by the source.

assay: amyloid nucleation score (Sup35N fusion, yeast selection) (log enrichment); library NNK2; higher = more nucleation; inactive = no reads after selection
Method in brief: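 Peptides of 20 random codons, each fused to Sup35N, were expressed in psi-negative yeast. Cells were induced with 100 μM copper sulfate for 24 hours and grown 7 days at 30°C on medium lacking adenine and uracil, and plasmid inserts before and after selection were Illumina-sequenced. Nucleation scores are DiMSum log enrichments of output over input reads, centred on the mode score of non-aggregating sequences, and sequences under 100 input reads were excluded.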

Point of comparison: IAIRFIDDYCGFRGV, amyloid nucleation score 0.288 ± 0.8. Against it:
- YCMFFCGCVTDPECNVPSDM — higher, 3.49 ± 0.1
- VCCVP — within error, -1.09 ± 1.1
- VRGSATEFTILVVVVVLGKR — within error, 0.182 ± 0.42
- GILVRRYAWSELMNGED — within error, 0.116 ± 0.49
- GVSWTFFGEYFQPCSSMKVN — within error, -0.538 ± 0.46
- FIRIVSFMRWHATTSALAIA — within error, 0.106 ± 0.36
- ARTLWY — within error, -0.522 ± 0.28
- SEWSRDRKRVKVSHFA — within error, 0.465 ± 0.17
- IQTNVYWGISCCVSLSLSGL — higher, 9.549 ± 0.022
- SILNDESFILLDILMVHFEY — within error, -0.547 ± 0.35
- FMAWTDSLIYKHAICAATL — within error, -0.031 ± 0.39
- SITMFQCQRVCASLQYVTGT — higher, 6.968 ± 0.063
- IVNINYCFTFKVPNHNNSMK — higher, 7.923 ± 0.04
- ARMSFWRRRPLLLSLRRSGV — within error, 0.379 ± 0.44
- FISTGRHTICDIVAHNADLF — within error, -0.305 ± 0.8
- SFTGL — within error, -0.684 ± 0.44
- MIAVV — within error, 0.861 ± 0.2
- YVVVLNWNSHCSKYYELRQE — higher, 8.402 ± 0.05
- FKAERSFLLSRYILKREGSQ — lower, -0.972 ± 0.34
- DDCKQRTHNDYMD — within error, 0.175 ± 0.37
- GYCKVGCFHLRYGSACCVRM — within error, 0.511 ± 0.41
- STSIAVANHWVSYFFVSSGL — higher, 8.998 ± 0.038
- VRYMLRTLEYMSRVGCSISH — within error, 0.101 ± 0.76
- PLWPSNSD — within error, -0.331 ± 0.54
- CYIRSVFSQWLTACLVNWFM — lower, -1.86 ± 1.1
- TIHSSPTVGLGNIWFVTNSH — higher, 6.87 ± 0.052
- APGWKLMNTSPNRMSTLNLQ — within error, -0.633 ± 1.1
- DCCRWSVLVVIVLAARSSMS — higher, 3.17 ± 0.099
- KTREFNEQIVYGASVYVYQG — within error, 0.672 ± 0.43
- GMRGNSYAVSYRDIVVLAPC — within error, -0.007 ± 0.55
- GFVYYSVMVFLMLAFPYLRH — lower, -1.59 ± 0.64
- RFMFPRTSIVWNASYVVGVL — higher, 2.92 ± 0.11
- LRHDR — within error, 0.43 ± 0.32
- KRHNR — within error, 0.846 ± 0.48
- DFMRDFWKDSDNQEVFLLPI — within error, -0.885 ± 0.44
- TWESSV — within error, 0.613 ± 0.2
- SYTSAYSRYIWRHQIIMGKK — lower, -1.11 ± 0.42
- VRTTYYNELETFLVLTPAMR — higher, 1.36 ± 0.22
- CHLIVICIQFDKLNLESAFH — within error, 0.547 ± 0.81
- CGWTDFMMYTWTEIMQIQLR — within error, -1.03 ± 0.76
- YVITSSPSLYACICSGVSVR — higher, 4.87 ± 0.1
- TFLWLLLY — higher, 6.754 ± 0.034
- KYCCWLRCGLIYNWGGNQDV — higher, 5.14 ± 0.064
- LVILEINVPKNIVSQRNYVP — higher, 8.045 ± 0.03
- STMVVRVFIGNVFMSFNMIR — higher, 4.36 ± 0.059
- FYGSEVIMSTDVQGNGEYGA — within error, -0.791 ± 0.62
- VDRKWRKT — within error, -0.373 ± 1
- GFHQFPVDVVALGWSILRCF — within error, -0.075 ± 0.31
- DIVRSYV — within error, -0.27 ± 0.45
- IFCWL — higher, 3.51 ± 0.047
- QTTMKVSFSFLMRGGNPQVM — higher, 4.56 ± 0.11
- IACYMMGLRLL — within error, -0.414 ± 0.41
- EGRVFTGEGRYECCSCFGLL — within error, -0.752 ± 0.64
- PRAHTVNV — within error, -0.249 ± 1.1
- MLFLMGPVWTCFKICNSLLT — within error, 0.333 ± 0.23
- CNLSVVYLLDMAD — higher, 3.99 ± 0.044
- VLYRLKVKAQWSLS — within error, 0.878 ± 0.28
- KSCYIAV — within error, -0.066 ± 0.45
- VNIFVLLYLYVWNASIVITF — within error, -0.221 ± 1.1
- LFLTHPARWSSNLRRLL — within error, 0.069 ± 0.3
- CNTLLTFNYNAYVIEVM — within error, 0.839 ± 0.17
- KATRTFY — within error, 0.495 ± 0.34
- SSLSGYGSYGLLPRWLRLVT — higher, 1.81 ± 0.4
- NVSSSLPF — within error, -0.424 ± 0.78
- LRKWILLLRDYDSLYFCLVA — lower, -0.996 ± 0.36
- MWRFRPLRSDTLRYDGSMGC — within error, -0.021 ± 0.76
- KRFGLVCVIQQAQKWVNGTG — within error, 0.179 ± 0.51
- TVIRNLVICSFEYCRDMITR — higher, 8.195 ± 0.075
- KGLWTISVSLWVV — within error, 0.112 ± 0.18
- IKNSRNVLLMPLLANHWHNS — within error, -0.58 ± 0.63
- DNVKVWSGFTRY — within error, -0.148 ± 0.49
- YCVRVMYNKLRLHMNIVVVC — within error, 0.705 ± 0.58
- TINMNIYFIVRVDPSFDNVV — higher, 6.88 ± 0.064
- IPMHPLCGVRRNTELRVVEW — higher, 1.78 ± 0.25
- VYQMCFMAILVIRIVR — within error, 0.439 ± 0.25
- DQSTSFFIFYNQTNWSMLFP — higher, 6.12 ± 0.056
- CASEVDNNSPPRWVRRTAGV — within error, 0.777 ± 0.45
- YQRRRSGGLELDWSNTMQGC — within error, -0.015 ± 0.31
- SRERPHFPLLIPGENMIMLM — within error, 1.04 ± 0.1
- FLCVYDFVVRNIKGIVLRLH — within error, 0.294 ± 0.8
- NSLYIFMVKYP — higher, 3.96 ± 0.049
- TFNVYTVSLDVCDYRGGHGL — higher, 6.602 ± 0.049
- VMWDRRHFMAVSSDLEDKTR — within error, 0.438 ± 0.16
- ISLNLVVN — within error, -0.272 ± 0.8
- SHFVCMWFYYISTWKCS — within error, -0.766 ± 0.48
- CCLENTRVLTVLVSLSMV — within error, 0.582 ± 0.35
- SSYGLVKR — within error, 0.655 ± 0.35
- VFTKLTLSSI — within error, 0.227 ± 1.1
- CEMLCQTIHSTLTWGIRRLS — within error, 1.12 ± 0.46
- SATEWIISVGGRAWRF — higher, 2.65 ± 0.12
- LVRTLAYCASKNNFVRL — within error, -0.038 ± 0.63
- LYPLCYGL — within error, -0.829 ± 1.1
- VPLRA — within error, 0.002 ± 0.55
- NVRMSGLF — higher, 2.67 ± 0.14
- KVQHLQR — within error, 0.403 ± 0.26
- SSFRVELHRCFVKVFLLLY — within error, -0.266 ± 1
- PNDAN — within error, 0.043 ± 0.28
- ISERKCCKVLYISAIRVLNF — within error, 0.034 ± 1.1
- LVSKSERER — higher, 5.451 ± 0.053
- ILRECFIFSHRKTHLLKFWL — within error, -0.622 ± 1.1
- CVMIESLKVFISPWLASRIR — within error, -0.291 ± 0.65
- GWMHFVALKGFSNHGRAGSG — within error, 0.448 ± 0.57
- SSLTPHWRVRKYDWYSIGSG — within error, -0.8 ± 0.41
- GWQGISAVSRGTGCWLEGTG — within error, 0.649 ± 0.34
- CTSHWAYEDEDFFIDRLYFT — within error, -0.796 ± 0.3
- CCAVTVAMECGGIVLVRYCF — within error, 0.453 ± 0.66
- DGCLARGYNKGVHDGVVEYL — within error, -0.088 ± 1.1
- VYEAWRTMQTGMYGVNRVWS — within error, 0.911 ± 0.15
- LGRWASGTAG — within error, 0.558 ± 0.57
- CMWWIHDPGRDRLKELKVAR — within error, 0.452 ± 0.36
- GPYFVNYPLKTNSIVLWELA — within error, 0.356 ± 0.8
- WCLFVLRRADTFRKGESVTC — higher, 1.79 ± 0.45
- FEDFLCFSGMRFVFELCADT — within error, -0.917 ± 0.78
- INCRFMVCWA — higher, 9 ± 0.052
- LLLVPIPH — within error, 1.07 ± 0.38
- CALGDATFNVWYMLS — higher, 4.14 ± 0.05
- NDKTYLPGRHSYGSCYVIVW — within error, 0.561 ± 0.64
- SEAYEGFSYSVLQYEP — within error, -0.092 ± 0.36
- LYYGNPEKIPADGLSSHIMQ — higher, 3.7 ± 0.063
- TVLLMIMMYFIANSFYVACG — higher, 5.89 ± 0.066
- LQVLARVDRLSHPGR — within error, 0.636 ± 0.81
- PFRGYFGVLSYAVFGEAGPV — higher, 4.4 ± 0.067
- FNATIVDRDLRSRGQNRSLQ — within error, 0.362 ± 0.65
- GDVDEWCLTGLGLSNIMVGQ — within error, 1.52 ± 0.58
- QYPDSCS — within error, -0.381 ± 0.79
- RFILMNLAIVVDFVGS — higher, 6.92 ± 0.078
- ACQHSG — higher, 4.36 ± 0.048
- KRYTHRCKPFTLHHLPVDAR — within error, 1.25 ± 0.33
- LGVESTCRSWFMFLGTQRIA — within error, -0.342 ± 1
- SLLNQLIKRNKSNAYVVHGI — within error, -0.275 ± 0.4
- PYSVMTFEIT — within error, 0.486 ± 0.33
- LWFYFFRDYLIGPMWNKIVI — within error, -0.898 ± 1.1
- SVRAVRMWIMDRNAARRMSG — within error, 0.997 ± 0.17
- NLRVAALAEGPRVNYRVSGW — within error, 0.69 ± 0.43
- MIFSEFGAEVIVGWFVVSVG — within error, -0.9 ± 0.76
- KQVNPPIA — within error, -0.541 ± 1.1
- SSMLANSMWRSFSVSYGTML — within error, 0.929 ± 0.36
- FQSDIKVIIMSTCTISGGRY — within error, 1.33 ± 0.25
- AGFMHVCYGSGQHRSKVDGC — higher, 2.93 ± 0.082
- AIRGRLKLVDMRHVIPKLKR — within error, 1.21 ± 0.33
- KYMLLCSICIFRNQGKKFRL — higher, 8.384 ± 0.052
- HISYVNSSRL — higher, 4.05 ± 0.078
- INLNNFLVLLLCKHRVVWKQ — higher, 1.48 ± 0.2
- CMFSLNGAYSMPHVKMSMCM — within error, -0.786 ± 0.46
- NNLHPDYDMGIGYIIDGDPA — within error, -0.34 ± 0.62
- HTRLHKGIQRVEIGSMNGK — within error, -0.637 ± 1.1
- QHWRLNWNEDFFMYWYGFLT — within error, -0.655 ± 0.41
- WYGFNNDTEWKNTKAFW — higher, 1.83 ± 0.084
- YNRNRCEVWRLFCLFCLLCF — higher, 2 ± 0.089
- FRYERTGRAMSTASVVTTTV — within error, 1.04 ± 0.68
- VWPLNYYGWKTNMSSCFHST — within error, -1.1 ± 1.1
- IHSSVGYMKTVPKLDDS — within error, 0.207 ± 0.34
- TNRNKRWRYLTLFV — within error, 0.545 ± 0.37
- MGSLSHYRAQDRLREQLWLW — within error, 0.458 ± 0.19

With DSIFFYTGMQTDYHAHMSPC the amyloid nucleation score was “inactive”.
In the case of WVLMYDICGS, the amyloid nucleation score is reported as “inactive”.
With AEGSDGCLKLNGAITIGHMI the amyloid nucleation score was “inactive”.
In the case of DRVFLFFKKRPGPWMMARLY, the amyloid nucleation score is reported as “inactive”.
In the case of TLDYGIFTVVNSTLWLYRSV, the amyloid nucleation score is reported as “inactive”.
With SYVVGRFNLSRCHLSCGLVS the amyloid nucleation score was “inactive”.
For FYLIIDPIPMDCSGIIVNCY, the amyloid nucleation score was “inactive”.
For PFSNMLASAFNFILITCSDL, the amyloid nucleation score was “inactive”.
With RMWFVNNLDDWFLPTCLWDR the amyloid nucleation score was “inactive”.
In the case of GGALGDFGTHEFNLNAPYSQ, the amyloid nucleation score is reported as “inactive”.
For CLCPTNYDSSRIYLVRC, the amyloid nucleation score was “inactive”.
In the case of MRLFVEFSVVLFYSFFNPFF, the amyloid nucleation score is reported as “inactive”.
With FYYVFYLNSLAVAGHLRILD the amyloid nucleation score was “inactive”.
With YFVCVASDGNMGIRYATR the amyloid nucleation score was “inactive”.
With LYSVGFRLTS the amyloid nucleation score was “inactive”.
For CKMRFLNMWRHFLKCLTAYT, the amyloid nucleation score was “inactive”.
